Changes are numbered by the printed parent chain.
B1: ALSE (D-allulose 6-phosphate 3-epimerase) (Escherichia coli K-12) (protein)
chain: MKISPSLMCMDLLKFKEQIEFIDSHADYFHIDIMDGHFVPNLTLSPFFVSQVKKLATKPLDCHLMVTRPQDYIAQLARAGADFITLHPETINGQAFRLIDEIRRHDMKVGLILNPETPVEAMKYYIHKADKITVMTVDPGFAGQPFIPEMLDKLAELKAWREREGLEYEIEVDGSCNQATYEKLMAAGADVFIVGTSGLFNHAENIDEAWRIMTAQILAAKSEVQPHAKTA
B2: RPE (D-ribulose 5-phosphate 3-epimerase) (Streptococcus pyogenes serotype M1) (protein)
chain: MSTLKIAPSILAADYANFASELARIEETDAEYVHIDIMDGQFVPNISFGADVVASMRKHSKLVFDCHLMVVDPERYVEAFAQAGADIMTIHTESTRHIHGALQKIKAAGMKAGVVINPGTPATALEPLLDLVDQVLIMTVNPGFGGQAFIPECLEKVATVAKWRDEKGLSFDIEVDGGVDNKTIRACYEAGANVFVAGSYLFKASDLVSQVQTLRTALNV
B3: ALSE (D-allulose 6-phosphate 3-epimerase) (Escherichia coli K-12; DEL196-196) (protein)
chain: MKISPSLMCMDLLKFKEQIEFIDSHADYFHIDIMDGHFVPNLTLSPFFVSQVKKLATKPLDCHLMVTRPQDYIAQLARAGADFITLHPETINGQAFRLIDEIRRHDMKVGLILNPETPVEAMKYYIHKADKITVMTVDPGFAGQPFIPEMLDKLAELKAWREREGLEYEIEVDGSCNQATYEKLMAAGADVFIVGSGLFNHAENIDEAWRIMTAQILAAKSEVQPHAKTA
B4: ALSE (D-allulose 6-phosphate 3-epimerase) (Escherichia coli K-12; DEL197-197) (protein)
chain: B3 chain with S196T
B5: ALSE (D-allulose 6-phosphate 3-epimerase) (Escherichia coli K-12; DEL198-198) (protein)
chain: B3 chain with S196T, G197S

Legend:
[1] = substrate: O=C(CO)[C@H](O)[C@H](O)COP(=O)(O)O; experiment: coupled-enzyme spectrophotometric assay of RPE activity; format: biochemical, Escherichia coli; conditions: Co2+ enzyme
[2] = substrate: O=C(CO)[C@H](O)[C@H](O)COP(=O)(O)O; experiment: as above; format: biochemical, Streptococcus pyogenes; conditions: Co2+ enzyme

Row | Protein | Km [1] [µM] | kcat [1] [s⁻¹] | kcat/Km [1] [M⁻¹ s⁻¹] | Km [2] [µM] | kcat [2] [s⁻¹] | kcat/Km [2] [M⁻¹ s⁻¹]
1 | B1 | 3000 ± 300 | 2 ± 0.8 | 670 | – | – | –
2 | B2 | – | – | – | 1200 ± 100 | 3800 ± 160 | 3.2e+06
3 | B3 | 3900 ± 500 | 130 ± 7 | 33000 | – | – | –
4 | B4 | 2800 ± 600 | 240 ± 14 | 85000 | – | – | –
5 | B5 | 5100 ± 500 | 440 ± 20 | 86000 | – | – | –
